Reference: patent US20240287172A1 (SCIRHOM, published 2024)
Changes are numbered by the printed parent chain.

B1: antibody 48 (antibody, V domains shown)
VH: QVQLQQSGTELVRPGTSVKVSCKASGYAFTNYLIEWVKQRPGQGLEWIGVINPGSGFTKYNEKFKGKATLTADKSSSTVYMHLSSLTSEDSAVYFCARGLYRAMDYWGQGTSVTVSS
VL: DIQMTQSPASQSASLGESVTITCLASQTIATWLAWYQQKPGKSPQLLIYGATTLADGVPSRFSGGGSGTKFSFKISSLQAEDFVSYYCQQLYSTPYTFGGGTKLEIK
notes: mouse IgG, kappa light chain; also called clone #48; purified antibody 48
B2: antibody 3 (antibody, V domains shown)
VH: QVTLKESGPGILQPSQTLSLTCSFSGFSLTTFAMGIGWVRQPSGKGLEWLAHIWWDGEKYNNPVLKSRLTISKDTSKNQVFLRIANVDTPDTATYYCARISSIYYIIDNWGQGTSVTVSS
VL: DIVLTQSPATLSVTPGHSVSLSCRASQSISNNLHWYQKKSHESPRLLIKYVSQSISGIPSRFSGSGSGTDFTLSINSVETEDFGMYFCQQSYNWPLTFGAGTKLELK
notes: mouse IgG, kappa light chain; also called clone #3; purified antibody 3

Tests used:
[1] = molecular target: T1, hiR2-FL-F588A-T7 (human, UniProt Q6PJF5 1-856); assay: FACS on MEF-DKO cells expressing the variant, 3 µg/ml antibody
T1 sequence: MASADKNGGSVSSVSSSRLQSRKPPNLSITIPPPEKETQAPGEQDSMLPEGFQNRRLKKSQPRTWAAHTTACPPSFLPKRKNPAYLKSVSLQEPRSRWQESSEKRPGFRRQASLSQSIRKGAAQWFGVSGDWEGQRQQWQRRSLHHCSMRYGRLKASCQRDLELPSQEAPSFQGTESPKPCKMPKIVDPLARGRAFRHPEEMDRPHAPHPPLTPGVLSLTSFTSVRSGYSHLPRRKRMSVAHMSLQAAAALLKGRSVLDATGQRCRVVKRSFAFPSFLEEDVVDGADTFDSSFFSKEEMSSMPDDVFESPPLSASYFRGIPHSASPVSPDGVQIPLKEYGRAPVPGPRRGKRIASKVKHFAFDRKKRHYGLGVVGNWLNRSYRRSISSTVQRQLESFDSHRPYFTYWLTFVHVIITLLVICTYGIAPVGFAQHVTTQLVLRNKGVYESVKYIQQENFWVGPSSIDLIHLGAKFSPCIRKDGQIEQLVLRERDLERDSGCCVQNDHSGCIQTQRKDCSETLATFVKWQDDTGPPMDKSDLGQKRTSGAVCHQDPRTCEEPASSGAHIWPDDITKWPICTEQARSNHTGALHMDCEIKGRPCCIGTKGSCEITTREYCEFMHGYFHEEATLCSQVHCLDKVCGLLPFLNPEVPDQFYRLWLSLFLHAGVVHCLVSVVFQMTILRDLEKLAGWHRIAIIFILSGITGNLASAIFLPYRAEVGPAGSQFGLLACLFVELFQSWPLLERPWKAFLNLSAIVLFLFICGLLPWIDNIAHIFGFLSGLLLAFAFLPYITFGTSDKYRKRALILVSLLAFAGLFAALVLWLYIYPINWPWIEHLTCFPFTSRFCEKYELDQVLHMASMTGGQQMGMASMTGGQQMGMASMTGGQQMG
Outline: (§1)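 Cells were stained with purified antibody at 3 μg/ml in FACS buffer for 1 hour on ice, with buffer-only controls. Bound antibody was detected with PE-conjugated goat anti-mouse IgG F(ab′)2 at 1:100, 1 hour on ice in the dark, followed by flow cytometry.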

[2] = molecular target: T2, hiR2-FL-H585A-T7 (human, UniProt Q6PJF5 1-856); assay: as above
T2 sequence: T1 sequence with H585A, A588F
Outline: as §1

Binder	loss of binding vs wild type [1] [%]	loss of binding vs wild type [2] [%]
B1	≥ 30	–
B2	–	≥ 30
